Measurements reported in article PMC11329700.

B1: GST-Dyn1xA-PRR (dynamin 1xA proline-rich region, amino acids 746-864) [rat] / Endophilin A1 [rat (endogenous in rat brain synaptosomes)] (parent)
chain 1: NTTTVSTPMPPPVDDSWLQVQSVPAGRRSPTSSPTPQRRAPAVPPARPGSRGPAPGPPPAGSALGGAPPVPSRPGASPDPFGPPPQVPSRPNRAPPGVPSRSGQASPSRPESPRPPFDL
chain 2: MSVAGLKKQFHKATQKVSEKVGGAEGTKLDDDFKEMERKVDVTSRAVMEIMTKTIEYLQPNPASRAKLSMINTMSKIRGQEKGPGYPQAEALLAEAMLKFGRELGDDCNFGPALGEVGEAMRELSEVKDSLDMEVKQNFIDPLQNLHDKDLREIQHHLKKLEGRRLDFDYKKKRQGKIPDEELRQALEKFDESKEIAESSMFNLLEMDIEQVSQLSALVQAQLEYHKQAVQILQQVTVRLEERIRQASSQPRREYQPKPRMSLEFATGDGTQPNGGLSHTGTPKPAGVQMDQPCCRALYDFEPENEGELGFKEGDIITLTNQIDENWYEGMLHGQSGFFPINYVEILVALPH
B2: GST-Dyn1xA-PRR (dynamin 1xA proline-rich region, amino acids 746-864) [rat] / Amphiphysin 1 [rat (endogenous in rat brain synaptosomes)] (parent)
chain 1: B1 chain 1
chain 2: MADIKTGIFAKNVQKRLNRAQEKVLQKLGKADETKDEQFEEYVQNFKRQEAEGTRLQRELRGYLAAIKGMQEASMKLTESLHEVYEPDWYGREDVKMVGEKCDVLWEDFHQKLVDGSLLTLDTYLGQFPDIKNRIAKRSRKLVDYDSARHHLEALQSSKRKDESRISKAEEEFQKAQKVFEEFNVDLQEELPSLWSRRVGFYVNTFKNVSSLEAKFHKEIAVLCHKLYEVMTKLGDQHADKAFSIQGAPSDSGPLRIAKTPSPPEEASPLPSPTASPNHTLAPASPAPVRPRSPSQTRKGPPVPPLPKVTPTKELQQENIINFFEDNFVPEINVTTPSQNEVLEVKKEETLLDLDFDPFKPDVTPAGSAAATHSPMSQTLPWDLWTTSTDLVQPASGGSFNDFTQPQDTSLFTMQTDQNMAETEQALPTEPQAEEPPTTAAAPTAGLDLGLEMEEPKEEAAIPPGTDAGETVGTEGSTGEEAEAEKAALPAGEGESPEGAKIDVESTELASSESPQAAELEAGAPQEKVIPSVVIEPASNHEGEEHQETTTGTETREATEDVAPQGPAGEKQELATEPTPLDSQAATPAPAGAVDASLSAGDAAQELPPGFLYKVETLHDFEAANSDELTLQRGDVVLVVPSDSEADQDAGWLVGVKESDWLQYRDLATYKGLFPENFTRHLE

Variants of: B1
Assay: GST pull-down, densitometric analysis of Western blots
Conditions: with Endophilin A1 [rat (endogenous in rat brain synaptosomes)]; parent: 100; read off a plot

| Variant | percent of parent [%] |
| --- | --- |
| chain 1 S29E S33E | 31 |
| chain 1 S106E S112E | 48 |

Variants of: B2
Assay: as above
Conditions: with Amphiphysin 1 [rat (endogenous in rat brain synaptosomes)]; parent: 100; read off a plot

| Variant | percent of parent [%] |
| --- | --- |
| chain 1 NTTTVSTPMPPPVDDSWLQVQSVPAGRREPTSEPTPQRRAPAVPPARPGSRGPAPGPPPAGSALGGAPPVPSRPGASPDPFGPPPQVPSRPNRAPPGVPSRSGQASPSRPESPRPPFDL [chain 1 S29E S33E] | 98 |
| chain 1 NTTTVSTPMPPPVDDSWLQVQSVPAGRRSPTSSPTPQRRAPAVPPARPGSRGPAPGPPPAGSALGGAPPVPSRPGASPDPFGPPPQVPSRPNRAPPGVPSRSGQAEPSRPEEPRPPFDL [chain 1 S106E S112E] | 91 |
